Test results reported in US7282576B2, “Coactivators in the diagnosis and treatment of breast cancer” (Georgetown University, priority 2001, dated 2007).

Tests used:
[1] = target: T1, human estrogen receptor α (Homo sapiens, UniProt P03372); assay: Transient transfection ERE-luciferase reporter assay in CHO cells; format: cell-based, hamster
T1 construct: expressed in transfected cells; host or cells: CHO cells
T1 sequence (P03372 1-595): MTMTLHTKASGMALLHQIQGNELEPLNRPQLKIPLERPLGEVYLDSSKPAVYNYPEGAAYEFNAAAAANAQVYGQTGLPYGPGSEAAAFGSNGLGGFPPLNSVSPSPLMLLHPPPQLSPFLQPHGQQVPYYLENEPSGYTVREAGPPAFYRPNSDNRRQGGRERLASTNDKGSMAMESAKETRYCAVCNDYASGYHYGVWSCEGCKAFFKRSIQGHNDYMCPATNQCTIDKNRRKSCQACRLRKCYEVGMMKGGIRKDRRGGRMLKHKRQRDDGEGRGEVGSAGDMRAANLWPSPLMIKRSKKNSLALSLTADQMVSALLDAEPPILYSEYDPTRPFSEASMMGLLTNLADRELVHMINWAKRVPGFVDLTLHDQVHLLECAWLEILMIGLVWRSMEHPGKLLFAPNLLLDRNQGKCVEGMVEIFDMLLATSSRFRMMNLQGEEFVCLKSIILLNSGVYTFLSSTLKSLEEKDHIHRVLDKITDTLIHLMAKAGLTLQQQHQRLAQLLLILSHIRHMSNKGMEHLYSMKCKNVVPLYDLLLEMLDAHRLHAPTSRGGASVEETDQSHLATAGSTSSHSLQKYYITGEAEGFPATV
Procedure: To verify that the Δ3-AIB1 mRNA was translated in vivo, transient transfection of CHO cells (FIG. 2; see FIG. 4a) or COS-1 cells (see FIG. 5a) with the Δ3-AIB1 cDNA was performed. COS-1 and CHO cells were plated at densities of 2×10^5 and 5×10^5 cells per well, respectively, in six-well plates, and were cultured for 24 h at 37° C. under 5% CO2 in IMEM or Ham's F-12, respectively, supplemented with 5% FBS that had been treated with dextran-coated charcoal. The medium was then replaced with IMEM containing Lipofectamine Plus (Gibco BRL) and expression and reporter plasmids as indicated. After incubation for 3 h, the medium was replaced with IMEM (COS-1 cells) or Ham's F-12 (CHO cells), each containing 5% dextran-coated charcoal-treated FBS and nuclear receptor ligands. Cells were incubated for 24 h and then disrupted in passive lysis buffer (Promega). Portions (20 μl) of the resulting cell extract were assayed for both firefly and renilla luciferase activities with the Dual-Luciferase reporter assay system (Promega).
The effect of the deletion of the bHLH and PAS A domains was next examined in Δ3-AIB1 on protein function. AIB1 acts as a coactivator for several nuclear receptors, including those for estrogen and progesterone, which are important in breast carcinogenesis. […]

[2] = tested on: human FGF-BP gene promoter; assay: EGF activation of FGF-BP gene promoter luciferase reporter in ME-180 cells; format: cell-based; details: EGF 5 ng/ml, 18 h
Procedure: ME-180 cells were plated at a density of 5×10^5 cells per well and cultured for 24 h in IMEM supplemented with 5% dextran-charcoal-treated FBS. They were then incubated for 3 h in IMEM supplemented with Lipofectamine Plus and expression and reporter plasmids. Cells were washed and then incubated in IMEM for an additional 3 h before incubation for 18 h with EGF (5 ng/ml) in serum-free IMEM and subsequent lysis. Because of high background induction of pRL-CMV expression by EGF, firefly luciferase activity was normalized by protein concentration as described previously (32).
Cells were transfected with 3 μg of either pcDNA3, pcDNA3-AIB1, or pcDNA3-AIB1-Δ3, together with a luciferase reporter plasmid containing the human FGF-BP gene promoter (1 μg) (32) (FIG. 6). After incubation of cells for 18 h in the absence or presence of EGF (5 ng/ml) in serum-free medium, cell extracts were prepared and assayed for luciferase activity. Activity was normalized by protein concentration, and the normalized activity values were then expressed relative to that of cells transfected with pcDNA3 and not exposed to EGF. Data are means±SEM of values from three independent experiments, each performed in triplicate. *P<0.01 versus the corresponding value for control cells.

## AIB1: 156-kDa full-length nuclear receptor coactivator amplified in breast cancer 1, expressed from pcDNA3-AIB1
[1]; 0.3 μg AIB1 vector vs 3 μg Δ3-AIB1 vector
  factor of potentiation of the estrogen response at approximately equal amounts of recombinant protein: 1.1
[1]; 3 μg expression vector, 10 nM estradiol-17β, 24 h
  increase in estrogen-induced luciferase activity: 1.4 fold
[2]; ME-180 cells, 3 μg vector
  increase of EGF induction of FGF-BP promoter reporter activity: increased slightly

## EGF: epidermal growth factor [reference compound]
[2]; ME-180 control cells with empty expression vector
  increase in FGF-BP promoter reporter activity: 2.5 fold
